# Measured values taken from US11491212.
# Target: Factor X (FX), P00742
# Sequence (P00742 whole entry, looked up): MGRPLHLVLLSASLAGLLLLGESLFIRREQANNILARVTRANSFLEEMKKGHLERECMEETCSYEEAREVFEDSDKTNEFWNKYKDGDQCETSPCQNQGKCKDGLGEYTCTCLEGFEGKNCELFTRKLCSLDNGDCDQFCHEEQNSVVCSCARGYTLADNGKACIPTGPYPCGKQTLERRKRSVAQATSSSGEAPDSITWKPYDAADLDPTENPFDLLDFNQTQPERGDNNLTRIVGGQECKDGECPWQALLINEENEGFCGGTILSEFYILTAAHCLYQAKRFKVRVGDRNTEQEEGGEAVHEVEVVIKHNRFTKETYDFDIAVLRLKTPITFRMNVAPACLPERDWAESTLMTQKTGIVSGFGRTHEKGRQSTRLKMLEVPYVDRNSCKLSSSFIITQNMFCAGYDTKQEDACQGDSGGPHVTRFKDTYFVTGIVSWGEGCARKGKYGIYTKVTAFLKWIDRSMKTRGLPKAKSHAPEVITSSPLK
Protein,kcat (Catalytic activity of FIXa variants) [s⁻¹],KM [µM],"KM for FX activation by FIXa in the Xase complex (FVIIIa/PC-PS/Ca2+), fluorogenic Spectrafluor FXa assay [µM]",kcat [s⁻¹]
FIXa R318Y/R338E/T412A (protein) chain 1: not shown chain 2: not shown,7,–,–,–
FIXa-D203N/F205T/E410N (protein) chain 1: not shown chain 2: not shown,–,0.0455,0.0455,1.7
FIXa-Y155F/R318Y/R338E/R403E (protein) chain 1: not shown chain 2: not shown,–,0.0671,–,5.1
FIXa-D203N/F205T/R338E (protein) chain 1: not shown chain 2: not shown,–,0.0241,0.0241,2.5
FIXa R318Y/R338E/R403E/E410N/T412A (protein) chain 1: not shown chain 2: not shown,8.4,–,–,–
FIXa R318Y/R338E/E410N/T412V (protein) chain 1: not shown chain 2: not shown,6.3,–,–,–
FIXa-Y155F/R338E/R403E/E410N (protein) chain 1: not shown chain 2: not shown,–,–,–,5.9
FIXa-D203N/F205T/R318Y (protein) chain 1: not shown chain 2: not shown,–,0.0475,0.0475,0.9
FIXa R318Y/R338E/R403E/E410N/T412V (protein) chain 1: not shown chain 2: not shown,7.9,–,–,–
FIXa-R338E/R403E/E410N (protein) chain 1: not shown chain 2: not shown,–,0.0367,0.0455,5.8
FIXa-D203N/F205T/R338A (protein) chain 1: not shown chain 2: not shown,–,0.0385,0.0385,2.3
FIXa-D203N/F205T/K228N (protein) chain 1: not shown chain 2: not shown,–,0.0399,0.0399,0.6
FIXa Y155F/K228N/K247N/N249S (protein) chain 1: not shown chain 2: not shown,4.3,–,–,–
FIXa K228N/K247N/N249S/R318Y/R338E/R403E/E410N (protein) chain 1: not shown chain 2: not shown,6.1,–,–,–
